Data on two sequences can be found in US20130309670.

In data set [1] the test system is Il2rg ZFN-1 (zinc finger-FokI nuclease) (synthetic construct). The data set can be described thus: cell_activity. Particulars: pair ZFN-1+ZFN-2, clones with ZFN cleavage (6/192) in mouse F1H4 ES cells without LTVEC; 6.9% among non-targeted clones with LTVEC; 6 bp spacer.
Data set [2] deals with Il2rg ZFN-2 (zinc finger-FokI nuclease) (synthetic construct). The data set can be described thus: cell_activity. To be noted: pair ZFN-1+ZFN-2, clones with ZFN cleavage (6/192) in mouse F1H4 ES cells without LTVEC; 6.9% among non-targeted clones with LTVEC; 6 bp spacer.

For the sequence “AGCTCCAAGGTCCTC (double strand) [Il2rg exon 1 ZFN-1 half-site (sense strand)]”, the activity in data set [1] was 3.1%.

The sequence “GTCTTCATTCGCACT (double strand) [Il2rg exon 1 ZFN-2 half-site (antisense strand)]” displayed an activity in data set [2] of 3.1%.
